Assay results: patent US20220332804A1 (CSL INNOVATION, published 2022)
Where a chain is given by its changes, count along the chain named.

What was measured:
Assay in all cases: SPR, antibody captured, C2 as analyte;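 note: biacore SPR at 37 °C, anti-C2 mAbs captured via goat anti-human IgG on CM5 chips, double-referenced sensorgrams fit to a 1:1 kinetic or steady-state model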
human C2 L453A = target: T1, human C2 L453A (human, UniProt P06681 21-752)
T1 sequence: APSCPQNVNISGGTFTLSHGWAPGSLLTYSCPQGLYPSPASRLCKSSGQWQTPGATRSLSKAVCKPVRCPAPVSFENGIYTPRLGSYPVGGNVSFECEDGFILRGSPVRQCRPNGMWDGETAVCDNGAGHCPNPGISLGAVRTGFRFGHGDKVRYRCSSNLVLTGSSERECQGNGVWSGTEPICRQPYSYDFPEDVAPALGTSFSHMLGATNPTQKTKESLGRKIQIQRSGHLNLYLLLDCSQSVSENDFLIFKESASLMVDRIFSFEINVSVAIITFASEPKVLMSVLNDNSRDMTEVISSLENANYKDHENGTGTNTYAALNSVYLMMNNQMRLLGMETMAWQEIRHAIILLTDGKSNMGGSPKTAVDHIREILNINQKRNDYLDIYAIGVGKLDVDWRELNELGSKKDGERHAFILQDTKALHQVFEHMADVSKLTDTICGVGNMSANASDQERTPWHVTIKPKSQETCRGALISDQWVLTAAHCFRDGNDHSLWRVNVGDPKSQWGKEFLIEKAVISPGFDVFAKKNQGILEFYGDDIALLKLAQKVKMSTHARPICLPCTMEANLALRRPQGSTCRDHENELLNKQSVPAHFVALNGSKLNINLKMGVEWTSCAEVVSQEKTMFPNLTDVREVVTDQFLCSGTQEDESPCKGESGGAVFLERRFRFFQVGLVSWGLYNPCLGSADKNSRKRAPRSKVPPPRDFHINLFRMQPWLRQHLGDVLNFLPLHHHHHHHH

human C2 E686A = target: T2, human C2 E686A (human, UniProt P06681 21-752)
T2 sequence: T1 sequence with A433L, E666A

human C2 D282A = target: T3, human C2 D282A (human, UniProt P06681 21-752)
T3 sequence: T1 sequence with D262A, A433L

human C2 P650A = target: T4, human C2 P650A (human, UniProt P06681 21-752)
T4 sequence: T1 sequence with A433L, P630A

B1: RF16-226 (antibody, human IgG4 S228P, lambda)
heavy: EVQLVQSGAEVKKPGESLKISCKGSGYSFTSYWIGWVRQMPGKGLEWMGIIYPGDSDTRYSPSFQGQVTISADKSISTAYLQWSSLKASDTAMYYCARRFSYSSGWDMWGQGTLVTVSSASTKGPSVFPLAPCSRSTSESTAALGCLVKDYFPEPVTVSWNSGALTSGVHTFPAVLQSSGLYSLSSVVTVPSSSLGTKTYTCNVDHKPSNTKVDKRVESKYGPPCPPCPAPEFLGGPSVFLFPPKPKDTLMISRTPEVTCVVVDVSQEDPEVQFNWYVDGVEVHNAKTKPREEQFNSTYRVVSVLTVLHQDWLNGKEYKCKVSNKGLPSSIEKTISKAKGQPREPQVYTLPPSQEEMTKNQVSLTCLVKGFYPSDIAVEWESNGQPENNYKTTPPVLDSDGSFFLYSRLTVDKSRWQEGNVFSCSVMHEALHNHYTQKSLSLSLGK
light: SYELTQPPSVSVSPGQTARITCSGDALTSKYVAWYQQKSGLAPLLVIYEDTRRPSGIPAKFSGSSSGSVATLTISGAHGDDEADYYCYSTDASGHQRVFGGGTKLTVLSQPKAAPSVTLFPPSSEELQANKATLVCLISDFYPGAVTVAWKADGSPVKAGVETTKPSKQSNNKYAASSYLSLTPEQWKSHRSYSCQVTHEGSTVEKTVAPTECS
notes: pH-dependent anti-C2 antibody from a phage display library; also called WT
Kd (human C2 L453A): 29.9 nM | Kd (human C2 E686A): 47.3 nM | Kd (human C2 D282A): 8.9 nM | Kd (human C2 P650A): 18.3 nM
